{"source": "paper PMC12724223", "biological_target": "T cell receptor subunit CD3ζ (human) (human (endogenous in primary CD4+ T cells))"}
{"substance": "SIVmac239 I123L L146F Nef (natural protein)", "values": [{"measurement": "fold downregulation of cell surface CD3 relative to ΔNef, transduced primary huCD4+ T cells, flow cytometry (Fig. 5B)", "result": 2.7, "unit": "fold"}]}
{"substance": "SIVmac239 WT Nef (natural protein)", "values": [{"measurement": "fold downregulation of cell surface CD3 relative to ΔNef, transduced primary huCD4+ T cells, flow cytometry (Fig. 5B)", "result": 15.2, "unit": "fold"}]}
